Data published in the nanobody polyreactivity screen of Harvey et al. (2022).

Test: yeast display, Sf9 membrane polyspecificity reagent, FACS + sequencing; frameworks hold sequencing errors
How it was run: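 In a synthetic yeast display library (Saccharomyces cerevisiae BJ5465), nanobody expression was induced with galactose for 36–48 hours. FACS gates were set low and high (top ~1%) using anti-HA fluorescence for expression and streptavidin fluorescence for binding of the Sf9 membrane reagent. Each polyreactivity label is drawn from the gate of origin.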

Sequence | polyreactivity (PSR sort gate)
QVQHVESGGGLVQAGGSLRLSCASSGRIFYFYAMGWYRQAPGKLRELVAAISTSGGSTYYADSVKGRFKISRDNATNTVYLQMNSLKPEDPAVYYCAGRFRYYGSEYDYWGQGTQVTVSS | low polyreactivity
QVQHVESGGGLVQAGGSLRLSCASSGSIFVGNAMGWYRQAPGKERELVAAISRRGGRPYYADSVKGRFTISRDKAKNTVYLQMNSLKPEDTAVYYCAAEYTYQNRIRFDYWGQGTQVTVSS | high polyreactivity
QVQHVESGGGLVQAGGSLRLSCDAYGSTFYYYAMGWYRQAPGKERELVASISRGGSTNYAYSVKGRFTISRDNAKNTVYLQMNSLKAEDTAVYYCNADRYLRPKSWWTVYYERDYWGQGTQVTVSS | low polyreactivity
QVQHVESGGGLVQAGGSLRLSCSASGFTLTAYAMGWSRQPPGKEREFVAAISTSGTRTYYADSVKGRFTISRDNAKNTVYLQMNSLKQEDTAVYYCAARYSGYQYWKFNYWGQGTQVTVSS | high polyreactivity
QVQHVESGGGLVQAGGSLRLSCSASGRTFSSYVMGWYRQAPGKERELVATITSGGITYYADSVKGRFTISRDNAKNTVYLQMNSLKPEDTAVYYCARAPPGDRFVRYDYWGQGTQVTVSS | high polyreactivity
QVQHVESGGGLVQAGGSLRLSFAASGSTFAWYPMGWYRQAPGKERELVAAITRDGSTYYADSVKGRFTISRDNAKNTVYLQMNSLKPEDTAVYYCAADLSYWRGGHSRYYWGQGTQVTVSS | low polyreactivity
QVQHVESGGGLVQAGGSLRLSSAASGGTFNVYAMGWYRQAPGKESELVAAIRWSGGSTYYADSVKGRFTISRDNAKNTVYLQMNSLKPEDTAVYFCAARFYGRSQTYGSWGLGTQVTVSS | high polyreactivity
QVQHVESGGGLVQAGGSLRLSSAASGHTFHRYAMGWYRQARWKESELVAAISDSGSSSYYADSVKRRFTISRDYAKYTVYLQMNSLKPEDTALYYCAAVSGFFDQYDYWGQGTQVTVSS | low polyreactivity
QVQHVESGGGLVQAGGSLRLTCAASGFIFVIYAMGWYRTAPGKERELVAAITESGDRTYYADSVKGGFTISRDNAKNTVYLQMNSLKPEDTAVYYCNALLSYGYHAAYGYWGQGTQVTVSS | high polyreactivity
QVQHVESGGGLVQAGGSLRLTCAASGRIIAGYAMGWYRQATGKEREMVAAISSRGGSTYYADSVKGRFSISRDNAKNTVDLQMNSLKPVDTAVYYCAKRSWYSYVYGSGDYWGQGTQVTVSS | high polyreactivity
QVQHVESGGGLVQAGGSRRLSCAASGSIFFYAMGWYRQAPAKERVLVAAITSAGSTNFADSVKGRFTISRDNAKNTVYLQMYSLKPEDTAVYYCAAGYVGYSWSYPYGWVEYDYWGQGTQVTVSS | high polyreactivity
QVQHVESGGGLVQAGRSLRLSCAASGILRRYAMGWYIQERGKERELVAAITRTGGRTYYADSVKGRFTISRDNAKNTVYLQMNSLKPEDTAVYYCATDRYVVSGMDYWGQGTQVTVSS | high polyreactivity
QVQHVESGGGLVQAGVSLRLSCAASGLTFTRYAMGWDRQAPGKERELVAAISWSGGSTYYADSVKGRFTISRDNAKNTVYLQMNSLKPEDTAVYYCAAEPYKQYTGYYYSGFEFWGQGTQVTVSS | high polyreactivity
QVQHVESGGGLVQAGVSLRLSCAASGSIFVYYAMGWYRQAPGKERELVASISESDGSTSYADSVKGRFTISRDNAMNTVYLQMNSLKPEDTAVSYCAADPYFYWYSPSFDYWGQGTQVTVSS | low polyreactivity
QVQHVESGGGLVQAGVSLRLSCAATGRIFGRYVMGWYRQAPGKETELVARIRRNVGSTYYADSVKGRFTISRDNAKYPVYLQMNSLKPEDTAVYYCAAESYDTWRRYESWGQGTQVTVSS | high polyreactivity
QVQHVESGGNLFKAGGSLRLSCAASGITFVYNAMGWYRPAPGKERELVDGITWSGSSTYYADSVKGRFTISRDNAKNTVYFHMNSLKPDDTAVYYCDAYLYDRTTRYTYYYWGQGTQVTVSS | high polyreactivity
QVQHVESGRGLVQAGGSLRLSCDASGFTFRSYPIGWYRHAPGKERELVAGITWRGGRTYYADSVKGRFTISRDNAKNTVYLQMNSLKPEDTAVYNCAKLYRYIYGGMDYWGQGTQVTVSS | high polyreactivity
QVQHVESGRGLVQAGGSLRLSCSASVRIFYNYAMGWYRQAPGKERELVAAISGSGGSTYYADSVKGRFTISRDNAKNSVYLQMNSQKPEDTAVYYCNKAVRRYPRFDYWGQGTQVTVSS | low polyreactivity
QVQHVESRGGLVQAGGSLRLSCAASGFTSDSNAMGWYRQAPGKERELVAAIDSGGGSTYYADSVKGRFTISRDNAKNTVYLQMISLKPEDTAVYYCNAEQTPFVASLRVGEYGYWGQGTQVTVSS | low polyreactivity
QVQHVESRGGLVQAGGSLRLSCAASGRTFQANAMGCYRQAPGKERELVAAITGRGGTTYYADSVKGRFTISRDNAKNTVYLQMNSLKPEDTAVYYCARALSGYGFWGYEYWGQGTQVTVSS | low polyreactivity
QVQHVESRGGLVQAGGSLRLSCAASGRTFVRYAMGWYRQAPGKERELVAAISGDGASTYYADSVKGRFTISRDNAMNTVYLQMNSLKPEDTAVYYCNARSIRRYYYPDYDYWGQGTQVTVSS | high polyreactivity
QVQHVESRGGLVQAGGSLRLSCAASGSIFFAYAMGWDRQGPGKEREFVAAISASGGSTSYADSVKGRFTISRDNAKNTVYLQMNSLKPEDTAVYYCATEHSVTTYDYWGQGTQVTVSS | low polyreactivity

Sequence | polyreactivity (PSR sort gate)
QVQHVESVGGLDQAGVSLRLSSSASGITFSYNAMGCSRQAPGKESEFVAAISSNSDSTYYADSVKGRFTISRDNAKNTVYLQMNSLKPEDTAVYYCAAETPDAPDYSGFYYWGQGTQVTVSS | low polyreactivity
QVQHVESVGGLVQAGGSLRLSCAASGGIFWVYAMGWYRQAPGKERELVAAISNSDTSTSYADSVKGRFTISRDNAKNTVYLQMNSLKPEDTAVYYCNADSPSLSGDYWGQGTQVTVSS | low polyreactivity
QVQHVESVGGLVQAGGSLRLSCAASGRTFGAYDMGWYRQAPGKERELVAAITRSGGSTYYADSVKGRFTISRDNAKNTVYLQMNSLKPEDTAVYYCAARDQVYNYRFGSRGGVYYWGQGTQVTVSS | high polyreactivity
QVQHVESVGGLVQAGGSLRLSCAASGRTLKKNAMGWYRQAPGKERELVAAISTGGRTYYADSVKGRFTISRDNAKNTVYLQMNSLKPEDTAVYYCNFQFLSWSTIWGNDYWGQGTQVTVSS | high polyreactivity
QVQHVESVGGLVQAGGTLRLSCSASGQIFEPYAMGWYRQAPGKERELVAAINSGGSTNYADSVKGRFTISRDNAKNTVYLQMNSLKPEDTAVYYCNKGQNIRQSPGDYWGLGTQVTVSS | low polyreactivity
QVQHVESVVGLVQAGGSLRLSCAASGSTFGPNAMGWSRQAPGKERELVAAITSGGRTYYADSVKGRFTISRDNAKNTVYLQMNSLKPEDTAVYYCAARVSVGVPRYEYWGQGTQVTVSS | high polyreactivity
QVQHVETGGGLVQAGGSLRLSCAASGFIFSQYAMGWYRQAPGKERELVAAISSGSTYADSVKGRVTISRDNAKNTVYLQMNSLKPEDTAVYYCAVDYHQAWPSADYWFEYVYWGQGTQVTVSS | low polyreactivity
QVQHVETGGGLVQAGGSLRLSCAASGRIFSYNAMGWYRQPPGKERELVAAISQRGGRTYYADSVKGRFTISRDNAKNTVYLQMNSLKPEDPAVYDCNKDKGQSLSSYGYWGQGTQVTVSS | high polyreactivity
QVQHVETGGGLVQAGGSLRLSCAATGYTLYRYPMGWYRQAPGKERELVARISYRTGSTYYADSVKGRFTISRDKAKNTVYLQMNSLKPEDTAVYYCAKYPGISGYKYWGQGTQVTVSS | high polyreactivity
QVQHVETGRDLVQAGGSLRLSCAAAGLIFVSYAMGGYRQAPGKERELVASITDSDSSTYYADSVKGRFTISRDNAKNTVYLQMNSLKPEDTAVYYCATGGRTEIWYPTLDYWGQGTQVTVSS | low polyreactivity
QVQIEDSGGGLVQAGGSLRLICAASGFTFINNDMGWYRQAPGKERELVAAISDSDGTTYYADSVKGRFTISRDNAKNTVYLQMNSLKPEDTEVYYCAADVVPTWEDEYWGQGTQVTVSS | low polyreactivity
QVQIEESGGGLVQAGGSLRLSCAASGFTFRWYAMGWSIQAPGKERELVAAIDWSGGSTNYADSVKGRFTISRDNAKNTVYLQMNSLKPEDTAVYYCAAVWRYWYPGFVPYDYWGQGTQVTVSS | high polyreactivity
QVQIEESGGGLVQAGGSLRLSCAASGRIFGSYTMGWSRQAPRKERELVAGISRRGGSTYYADSVKGRFTISRDNAKYTVYLQMNSLTTEDTAVYYCNTLRTNLFFTPLGFDYWGQGTQVTVSS | high polyreactivity
QVQIEESGGGLVQAGGSLRLSCAASGRTFLHKDMGWYRPAPGKERELVAAINVSDGSTYYADSVKGRFTISRDNAKNTVYLQMNSLKPEDTAVYYCAKASYIIFRFEYRSGYDYWGQGTQVTVSS | low polyreactivity
QVQIEESGGGLVQAGGSLRLSCAASGSIFPLYTMGWSRQAPGKERELVAAIDFRGGSTYYADSVKGRFTISRDNAKNSVYLQMNSLKPEDTAVYYCAAAYWAYDTGKMGYWGQGTQVTVSS | low polyreactivity
QVQILESGGGLVQAGGSLGLSCAASGSTFPPYAMGWYRQAPGKERELVATITRGGSTYYADSVKGRFTFSRDNAKNTVYVQMNSLKPADTAVYDCNAKVNRSRRSNLYDYWGQGTQVTVSS | high polyreactivity
QVQIVASWGGLVQAGGSLRLSCAATGRIFEINAMGWYRQAPGKERELVAAITRSGGSTYYADSVKGRFTISRDYAKNTVYVQMNSLKPEDTAVYYCAARGRYWYSRYYSWGQGTQVTVSA | high polyreactivity
QVQIVDSGVGLVQAGGSLRLSCAASGSIFKYNAKGWYREAPGKVRELVAAIRWSGVGTRYADSVKGRFTISRVNAKNTVYLQMNSLKPEDTAVYSCAARYGRHRVSCYATWRYGYWGQGTQVTVSS | low polyreactivity
QVQIVESCGGLFQAAGRLRLICADSRSIFSYNAMGWYRQAPGKERELVAAITSGGRTYYADSVKGRFTISRDNAKNTVYLQMNSLKPEDTGVYYCAAYQTGLHGFYSWGQGTQVTVSS | high polyreactivity
QVQIVESCGGLVQAGGSLRLSCAASGITFDVNTMGWYRQAPGKEREMVAAITRDVTTNYADSVKGPFTISRDNAKNTVYLQMNSLKPEDTAVYYCAADGYGQYSQVTDHPYKYNYWRQGTQVTVSS | low polyreactivity
QVQIVESGAGLVQAGGTLRISCAPSGITFTPYAMGWYRQAPGKEWELVATITSDGGSTYYADSVKGRFTISRDNAKNTVYLQKNSLKPEETAVYYCAAADHAWLYGWGYSLDVWYYYWGQGNQVTVSS | low polyreactivity
